Test results: patent US20240109967A1 (University of Pennsylvania, published 2024)
Read-outs that look alike come from different tables or passages of the source.

Key:
[1] = biological target: T1, human complement C1q (in normal human complement serum) (human, UniProt P02745 23-245; P02746 28-253; P02747 29-245); experiment: complement fixation ELISA: antibody titrated on captured cCTLA-4, C1q of human serum detected
T1 construct: also called human serum complement

[2] = biological target: T2, recombinant canine CTLA-4 extracellular domain protein (canine, UniProt Q9XSI1 36-161, biotin on the Avi tag (BirA ligase) in the ELISA, panning and interaction assays); experiment: ELISA; the axis is the amount of CTLA4 per well, not the mAb concentration
T2 construct: Cloned into pFUSE containing an HA tag, made in 293T cells; The SPR analyte is called soluble cCTLA-4 ECD, and biotinylation is not mentioned there; also called cCTLA-4; cCTLA-4 ECD
T2 chain: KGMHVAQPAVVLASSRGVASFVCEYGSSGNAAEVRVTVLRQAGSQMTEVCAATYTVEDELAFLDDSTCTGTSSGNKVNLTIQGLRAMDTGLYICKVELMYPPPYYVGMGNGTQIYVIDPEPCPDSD

[3] = biological target: T2, recombinant canine CTLA-4 extracellular …; experiment: ELISA; the axis is the amount of coated CTLA4, not the mAb concentration
[4] = biological target: T2, recombinant canine CTLA-4 extracellular …; experiment: SPR, mAb captured on the chip, cCTLA-4 ECD as analyte
[5] = biological target: T2, recombinant canine CTLA-4 extracellular …; experiment: SPR, full-length canine mAb and cCTLA-4
[6] = biological target: T2, recombinant canine CTLA-4 extracellular …; experiment: ELISA; the axis is the amount of coated cCTLA-4, scFv fixed at 0.25 ug/ml
[7] = biological target: T2, recombinant canine CTLA-4 extracellular …; experiment: scFv expression extract ELISA on cCTLA-4 (data not shown)
[8] = biological target: T2, recombinant canine CTLA-4 extracellular …; experiment: SPR, mAb captured on the chip, cCTLA-4 ECD as analyte

T1 sequence (P02745 23-245 limits assumed, chain 1 of 3): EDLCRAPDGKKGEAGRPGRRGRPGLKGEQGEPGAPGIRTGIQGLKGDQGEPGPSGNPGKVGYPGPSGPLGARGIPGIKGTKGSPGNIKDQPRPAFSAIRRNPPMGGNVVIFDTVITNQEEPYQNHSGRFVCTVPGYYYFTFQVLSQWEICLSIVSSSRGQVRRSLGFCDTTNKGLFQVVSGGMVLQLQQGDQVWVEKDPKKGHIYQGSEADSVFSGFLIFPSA
T1 sequence (P02746 28-253 limits assumed, chain 2 of 3): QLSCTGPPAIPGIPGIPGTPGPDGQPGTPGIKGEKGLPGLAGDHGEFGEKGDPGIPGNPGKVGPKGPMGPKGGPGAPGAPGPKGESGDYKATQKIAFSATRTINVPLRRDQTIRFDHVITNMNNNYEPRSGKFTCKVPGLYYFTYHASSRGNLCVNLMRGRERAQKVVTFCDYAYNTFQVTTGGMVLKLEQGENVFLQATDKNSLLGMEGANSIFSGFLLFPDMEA
T1 sequence (P02747 29-245 limits assumed, chain 3 of 3): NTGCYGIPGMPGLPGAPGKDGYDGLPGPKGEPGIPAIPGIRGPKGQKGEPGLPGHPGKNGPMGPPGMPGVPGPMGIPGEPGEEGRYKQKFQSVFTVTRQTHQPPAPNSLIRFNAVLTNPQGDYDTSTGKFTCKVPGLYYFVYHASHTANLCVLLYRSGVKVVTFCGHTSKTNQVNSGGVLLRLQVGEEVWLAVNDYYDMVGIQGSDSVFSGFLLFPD

B1: A1mut2 full-length canine IgG3 (IgGC) mAb, HA-tagged (antibody)
heavy: EVQLVETGGDLVKPGGSLRLSCVASGFSFSSYAMNWVRQAPEKGLQLVGGINSGGSSTYYTDAVKGRFTISRDNAKNTVYLQMNSLRAEDTAVYYCAISNWAYWGQGTLVTVSSASTTAPSVFPLAPSCGSQSGSTVALACLVSGYIPEPVTVSWNSGSLTSGVHTFPSILQSSGLYSLSSMVTVPSSRWPSETFTCNVAHPATNTKVDKPVVKECECKCNCNNCPCPGCGLLGGPSVFIFPPKPKDILVTARTPTVTCVVVDLDPENPEVQISWFVDSKQVQTANTQPREEQSNGTYRVVSVLPIGHQDWLSGKQFKCKVNNKALPSPIEEIISKTPGQAHQPNVYVLPPSRDEMSKNTVTLTCLVKDFFPPEIDVEWQSNGQQEPESKYRMTPPQLDEDGSYFLYSKLSVDKSRWQRGDTFICAVMHEALHNHYTQKSLSHSPGKGGGSGGGSYPYDVPDYA
light: QAVLNQPASVSGSLGQRVTISCTGSSSDIGKSYVAWYQQLPGTGPRTLINVDGNRASGVPDRFSVSRSGNTATLTISGLQAEDEADYHCSSWDWSLHTYVFGSGTQLTILGQPKASPSVTLFPPSSEELGANKATLVCLISDFYPSGVTVAWKADGSPITQGVETTKPSKQSNNKYAASSYLSLTPDKWKSHSSFSCLVTHEGSTVEKKVAPAECS
notes: also called A1mut2 IgGC
B1 was tested, and the “EC50 (read off the curve)” value [1] was ~0.5 ug/ml antibody.

B2: A1mut2 full-length canine IgG2 (IgGB) mAb, HA-tagged (antibody)
heavy: EVQLVETGGDLVKPGGSLRLSCVASGFSFSSYAMNWVRQAPEKGLQLVGGINSGGSSTYYTDAVKGRFTISRDNAKNTVYLQMNSLRAEDTAVYYCAISNWAYWGQGTLVTVSSASTTAPSVFPLAPSCGSTSGSTVALACLVSGYFPEPVTVSWNSGSLTSGVHTFPSVLQSSGLYSLSSMVTVPSSRWPSETFTCNVAHPASKTKVDKPVPKRENGRVPRPPDCPKCPAPEMLGGPSVFIFPPKPKDTLLIARTPEVTCVVVDLDPEDPEVQISWFVDGKQMQTAKTQPREEQFNGTYRVVSVLPIGHQDWLKGKQFTCKVNNKALPSPIERTISKARGQAHQPSVYVLPPSREELSKNTVSLTCLIKDFFPPDIDVEWQSNGQQEPESKYRTTPPQLDEDGSYFLYSKLSVDKSRWQRGDTFICAVMHEALHNHYTQESLSHSPGKGGGSGGGSYPYDVPDYA
light: QAVLNQPASVSGSLGQRVTISCTGSSSDIGKSYVAWYQQLPGTGPRTLINVDGNRASGVPDRFSVSRSGNTATLTISGLQAEDEADYHCSSWDWSLHTYVFGSGTQLTILGQPKASPSVTLFPPSSEELGANKATLVCLISDFYPSGVTVAWKADGSPITQGVETTKPSKQSNNKYAASSYLSLTPDKWKSHSSFSCLVTHEGSTVEKKVAPAECS
notes: also called A1mut2 IgGB
With B2 the “EC50 (read off the curve)” value [1] was ~0.6 ug/ml antibody.

B3: D5 full-length canine IgG1 (IgGA) mAb (antibody)
heavy: EVQLVETGGDLMKPGGSLRLSCVASGFTFSSYSMSWVRQAPEKGLQLVAGINSGGSSTYYTDAVKGRFTISRDNAKNTLYLQMNSLRDEDTAVYYCVISNWSYWGQGTLVTVSSASTTAPSVFPLAPSCGSTSGSTVALACLVSGYFPEPVTVSWNSGSLTSGVHTFPSVLQSSGLYSLSSMVTVPSSRWPSETFTCNVVHPASNTKVDKPVFNECRCTDTPPCPVPEPLGGPSVLIFPPKPKDILRITRTPEVTCVVLDLGREDPEVQISWFVDGKEVHTAKTQSREQQFNGTYRVVSVLPIEHQDWLTGKEFKCRVNHIDLPSPIERTISKARGRAHKPSVYVLPPSPKELSSSDTVSVTCLIKDFYPPDIDVEWQSNGQQEPERKHRMTPPQLDEDGSYFLYSKLSVDKSRWQQGDPFTCAVMHETLQNHYTDLSLSHSPGKGGGSGGGSYPYDVPDYA
light: QPVLTQPPSVSAALGQRVTISCTGTATNVGGGYDVQWYQQFPGRPPKTIIYGNYNRPSGVPDRFSASTSGTTATLTISGLQAEDEANYYCSSWDNSLTAYVFGSGTQLTILGQPKASPSVTLFPPSSEELGANKATLVCLISDFYPSGVTVAWKADGSPITQGVETTKPSKQSNNKYAASSYLSLTPDKWKSHSSFSCLVTHEGSTVEKKVAPAECS
notes: The HA tag is placed on the heavy chain; also called D5 mAb; D5 antibody
In the case of B3, the “EC50 (read off the curve)” value [2] is reported as ~0.7 pmol/well CTLA4, the “EC50 (read off the curve)” value [3] is reported as ~0.2 pmol biotinylated CTLA4/well and the Kd [4] is reported as 1.5 nM. The koff [4] was 0.00018 s⁻¹, the kon [4] was 120000 M⁻¹ s⁻¹ and the t1/2 [4] was 64 min. It also gave a Kd [5] of 1.5 nM, a kon [5] of 120000 M⁻¹ s⁻¹ and a t1/2 [5] of 64 min.

B4: A1 scFv (soluble, His and HA tagged) (scFv)
scFv: QAVLNQPASVSGSLGQRVTISCTGSSSDIGKSYVAWYQQLPGTGPRTLINVDGNRASGVPDRFSVSRSGNTATLTISGLQAEDEADYHCSSWDWSLHTYVFGSGTQLTILGGGSSRSSSSGGGGSGGGGEVQLVESGGDLVKPAGSLRLSCVASGFSFSSYAMNWVRQAPGKGLQWIAGINSGGSSTSHIDAIKGRFTISRDNAKNTLYLQMNSLRAEDTAVYYCAISNWAYWGQGTLVTVSSESPSPPNLTSGQAGQHHHHHHGAYPYDVPDYAS
notes: Canine scFv from panning round 3; also called clone A1
B4 was tested, and the “EC50 (read off the curve)” value [6] was ~0.3 pmol biotinylated cCTLA4 and the “fold increase in binding over background” value [7] was > 20 fold.

B5: B10 full-length canine IgG1 (IgGA) mAb (antibody)
heavy: EVQLVETGGDLVKPGGSLRLSCVASGFTFSDYPMNWVRQAPEKGLQLVGGINSGGSATYYTDAVKGRFTISRDNAKNTVYLQMNSLRAEDTAMYYCATSNFQYWGQGTLVTVSSASTTAPSVFPLAPSCGSTSGSTVALACLVSGYFPEPVTVSWNSGSLTSGVHTFPSVLQSSGLYSLSSMVTVPSSRWPSETFTCNVVHPASNTKVDKPVFNECRCTDTPPCPVPEPLGGPSVLIFPPKPKDILRITRTPEVTCVVLDLGREDPEVQISWFVDGKEVHTAKTQSREQQFNGTYRVVSVLPIEHQDWLTGKEFKCRVNHIDLPSPIERTISKARGRAHKPSVYVLPPSPKELSSSDTVSVTCLIKDFYPPDIDVEWQSNGQQEPERKHRMTPPQLDEDGSYFLYSKLSVDKSRWQQGDPFTCAVMHETLQNHYTDLSLSHSPGKGGGSGGGSYPYDVPDYA
light: QAVLNQPASVSAALGQRVTISCNTNIGSPYDVQWYQQLPGKSPKTIIYGNSNRPSGVPVRFSGSKSGSTATLTIAGIQAEDEADYYCQSYDDNVDGYVFGSGTQLTVLGQPKASPSVTLFPPSSEELGANKATLVCLISDFYPSGVTVAWKADGSPITQGVETTKPSKQSNNKYAASSYLSLTPDKWKSHSSFSCLVTHEGSTVEKKVAPAECS
notes: The HA tag is placed on the heavy chain; also called B10 mAb; B10 antibody
With B5 the “EC50 (read off the curve)” value [2] was ~0.9 pmol/well CTLA4, the “EC50 (read off the curve)” value [3] was ~0.2 pmol biotinylated CTLA4/well and the Kd [8] was 1.5 nM. For the same binder, the koff [8] was 0.00025 s⁻¹, the kon [8] was 160000 M⁻¹ s⁻¹ and the t1/2 [8] was 46 min. For the same binder, the Kd [5] was 1.5 nM, the kon [5] was 160000 M⁻¹ s⁻¹ and the t1/2 [5] was 46 min.

B6: D5 scFv (soluble, His and HA tagged) (scFv)
scFv: QPVLTQPPSVSAALGQRVTISCTGTATNVGGGYDVQWYQQFPGRPPKTIIYGNYNRPSGVPDRFSASTSGTTATLTISGLQAEDEANYYCSSWDNSLTAYVFGSGTQLTILGGGSSRSSSSGGGGSGGGGEVQLVETGGDLMKPGGSLRLSCVASGFTFSSYSMSWVRQAPEKGLQLVAGINSGGSSTYYTDAVKGRFTISRDNAKNTLYLQMNSLRDEDTAVYYCVISNWSYWGQGTLVTVSSESPSPPNLTSGQAGQHHHHHHGAYPYDVPDYAS
notes: Canine scFv from panning round 4; also called clone D5
B6 was tested, and the “EC50 (read off the curve)” value [6] was ~0.4 pmol biotinylated cCTLA4 and the “fold increase in binding over background” value [7] was > 20 fold.

B7: clone A1 full-length canine IgG1 (IgGA) mAb (antibody, V domains shown)
VH: EVQLVESGGDLVKPAGSLRLSCVASGFSFSSYAMNWVRQAPGKGLQWIAGINSGGSSTSHIDAIKGRFTISRDNAKNTLYLQMNSLRAEDTAVYYCAISNWAYWGQGTLVTVSS
VL: QAVLNQPASVSGSLGQRVTISCTGSSSDIGKSYVAWYQQLPGTGPRTLINVDGNRASGVPDRFSVSRSGNTATLTISGLQAEDEADYHCSSWDWSLHTYVFGSGTQLTILG
notes: Produced only at low levels; also called A1 mAb
B7 was tested, and the “EC50 (read off the curve)” value [2] was ~0.7 pmol/well CTLA4.

B8: B10 scFv (soluble, His and HA tagged) (scFv)
scFv: QAVLNQPASVSAALGQRVTISCNTNIGSPYDVQWYQQLPGKSPKTIIYGNSNRPSGVPVRFSGSKSGSTATLTIAGIQAEDEADYYCQSYDDNVDGYVFGSGTQLTVLGGGSSRSSSSGGGGSGGGGEVQLVETGGDLVKPGGSLRLSCVASGFTFSDYPMNWVRQAPEKGLQLVGGINSGGSATYYTDAVKGRFTISRDNAKNTVYLQMNSLRAEDTAMYYCATSNFQYWGQGTLVTVSSESPSPPNLTSGQAGQHHHHHHGAYPYDVPDYAS
notes: Canine scFv from panning round 3; also called clone B10
In the case of B8, the “EC50 (read off the curve)” value [6] is reported as ~0.6 pmol biotinylated cCTLA4 and the “fold increase in binding over background” value [7] is reported as > 20 fold.
